# Measured values reported in paper doi:10.1101/2020.09.10.292318 (bioRxiv, 2020).
# What was measured:
# SARS-CoV N protein = SARS-CoV N protein (SARS-CoV (strain ; reference …, UniProt P59595); assay: SPR
# [1] = target: SARS-CoV-2 nucleocapsid (N) protein, N-FL (SARS-CoV-2 (reference sequence; isolate …, UniProt P0DTC9); assay: SPR
binder,measurement,setting,value
"mAb nCoV396 (antibody, V domains shown) VH: QVQLVESGGGVVQPGRSLRLSCAASGFTFSSYIMHWVRQAPGKGLEWVAVISYDGSNEAYADSVKGRFTISRDNSKNTLYLQMSSLRAEDTGVYYCARETGDYSSSWYDSWGRGTLVTVSS VL: QLVLTQSPSASASLGASVKLTCTLSSGHSNYAIAWHQQQPEKGPRYLMKVNSDGSHTKGDGIPDRFSGSSSGAERYLTISSLQSEDEADYYCQTWGTGIQVFGGGTKLTVL",Kd,SARS-CoV N protein,7.4 nM
same,Kd,[1],1.02 nM
